Assay results taken from patent US8399414B2, “Analgesics” (NRL Pharma, Inc., priority 2002, dated 2013).

Experiments:
TNF-α production = assay: LPS-stimulated cytokine production in rats with adjuvant arthritis, ELISA (Example 8); format: in vivo, rat; conditions: LPS 1 mg/kg i.p., blood 3 hours later
Procedure: (§1) It is known that in adjuvant arthritis models, the production of cytokines due to the LPS stimulation increases considerably, compared with normal animals, because the reactivity of their immune system increases due to chronic inflammation.
(§2) One mg/kg of LPS was administered intraperitoneally to rats with adjuvant arthritis to stimulate the production of cytokines. Three hours after the LPS administration, the blood was collected from each rat and the quantities of cytokines were measure by ELISA. The groups to be administered a single dose of lactoferrin (groups B and C) were given orally 0.5% CMC once daily until the experiment day to allow the experiment conditions to match those of the group to be administered lactoferrin for 19 consecutive days. The group to be administered lactoferrin for 19 consecutive days (group E) was administered orally lactoferrin once daily from the very day when treated with adjuvant. The design of the experiment is shown in Table 2 and the results in FIG. 14.

IL-10 production = assay: as above; format: in vivo, rat; conditions: LPS 1 mg/kg i.p., blood 3 hours later
Procedure: as §1, §2

rats [1] = assay: subacute toxicity study, dosing period of 3 months, oral; format: in vivo; conditions: maximum dose of 2 g/kg
Text: (§3) In toxicity studies in beagles and rats carried out by the inventors in accordance with GLP, lactofferin extracted from milk (manufactured by Tatua Milk Industry Co., Ltd., New Zealand, purity: 87%) was non-toxic after oral administration at physical limit doses. […] Accordingly, lactoferrin is probably non-toxic after oral administration and has almost ideal characteristics as a therapy for cancer. It is likely that lactoferrin defends opportunistic infections frequently occurring in immunocompromised hosts such as patients with cancer, prevents carcinogenesis, inhibits the growth of cancer, prevents metastasis, and destructs a metastatic lesion. Further, it is probably highly safe when administered to patients declining in immunopotency, such as aged patients.

beagles [2] = assay: as above; format: in vivo; conditions: maximum dose of 2 g/kg
Text: as §3

male Wistar rats [3] = assay: formalin test, enhancement of analgesic effect of morphine (Example 13); format: in vivo; conditions: 10 ng/rat bovine lactoferrin with 1 to 10,000 ng/rat morphine; several 10- to 100-fold or more; FIG. 16
Procedure: The lactoferrin's effect of enhancing the analgesic effect of morphine was examined by administering 1 to 10,000 ng/rat of morphine concurrently with 10 ng/rat of bovine lactoferrin (▪) or alone (●) in the same manner as in Example 12. The results are shown in FIG. 16: the number of the foot-lifting times in the phase 1 pain (left graph) and the number of foot-lifting time in the phase 2 pain (right graph).

rats [4] = assay: single dose acute toxicity study (GLP), oral; format: in vivo; conditions: maximum dose of 5 g/kg
Text: as §3

beagles [5] = assay: single dose acute toxicity study (GLP), oral; format: in vivo; conditions: maximum dose of 5 g/kg
Text: as §3

rodent animals [6] = assay: hot plate test; format: in vivo; conditions: administration before test
Text: (§4) The inventors carried out, using rodent animals, animal tests related to pain: (1) hot plate test, (2) formalin test and (3) acetic acid rising test to examine the influences of lactoferrin administration on the animals' sensation of pain.

pepsin = format: in vitro ADME
Text: (§5) Preferably the composition of this invention, as a composition for an oral formulation, is made into an enteric-coated dosage form. The inventors of this invention hypothesize that there exists a structure, which can be referred to as a lactoferrin sensor, on the mucosa of the intestinal tract, as described in detail in International Patent Application, PCT/JP01/10212 (WO02/41912).

male Wistar rats [7] = assay: ethanol and restriction stress gastric ulcer (Example 4); format: in vivo, rat; conditions: 1% bovine lactoferrin in feed for 8 weeks; relative to control group
Procedure: Sixteen male Wistar rats (6 weeks of age) were randomly divided into two groups, and the rats in one group (n=8) were fed standard feed powder for rodent animals (CLEA JAPAN, INC., CE-2) while those in the other group (n=8) fed CE-2 with 1% bovine lactoferrin added thereto for 8 weeks. Eight weeks later, the rats were deprived of food for one night, administered orally and forcibly 5 ml/kg weight of 50% ethanol, and subsequently inflicted with restriction stress for 2 hours. Two 2 hours later, the stomach of each rat was excised and “number of hemorrhagic spots”, “area of hemorrhage”, “number of ulcers”, “number of large ulcers” and “areas of ulcers” on the gastric mucosa were measured.

male Wistar rats [8] = assay: formalin test, oral administration in feed for 4 weeks (Example 2); format: in vivo, rat; conditions: 1% bovine lactoferrin in feed for 4 weeks
Procedure: (§6) Formalin test is a typical pain sensation stimulating test. It is a method for determining an analgesic effect of drugs in which 50 μl of 2% formalin is injected into a foot pad of each experimental rat and the foot-lifting and foot-licking behavior of the rats is observed.
Fourteen male Wistar rats (6 weeks of age) were randomly divided into two groups, and the rats in one group were fed standard feed powder for rodent animals (Clea Japan, Inc., CE-2) while those in the other group fed CE-2 with 1% bovine lactoferrin added thereto for 4 weeks. Four weeks later, formalin solution was injected into the foot pad of each rat, and the foot-lifting and foot-licking behavior of each rat due to the pain sensation stimulation was measured for one hour (FIGS. 3 and 4).

rodent animals [9] = assay: acetic acid rising test; format: in vivo; conditions: administration before test
Text: as §4

[10] = system: adjuvant arthritis rat model; format: in vivo; conditions: LF 100 mg/kg oral sid or bid, Dex 1 mg/kg i.p. sid
Procedure: The preventive/therapeutic effects against arthritis of orally administered lactoferrin (LF) and the mechanism of the action were examined using an adjuvant arthritis rat model as an animal model with rheumatoid arthritis.
Evaluation of the above described effects was performed by measuring the change in volume of foot due to swelling, Flexion test (pain in joints caused in flexion and extension test), and the production of cytokine by the stimulation of lipopolysaccharide.
Adjuvant was injected subcutaneously into the sole of the right hind leg of each rat, and the volume of the feet was measured once a day to obtain the swelling rate of the feet of both hind legs. The test substance was suspended in 0.5% CMC and administered once or twice a day for 18 consecutive days starting from the first dose 3 hours before adjuvant treatment (day 0). On 4th and 10th days after treating with adjuvant, the swollen tarsal joint of each rat was extended 10 times and the number of times each rat screamed due to the stimulation of pain sensation caused by flexing and extending its tarsal joint was measured.

[11] = system: adjuvant arthritis rat model; assay: adjuvant arthritis rat model, treatment in chronic phase (Example 6); format: in vivo
Procedure: Subsequently after Example 5, lactoferrin (100 mg/kg) was orally administered for 7 consecutive days starting from day 19 after the adjuvant treatment, when the adjuvant treated rats were in the chronic phase of inflammation.

male Wistar rats [12] = assay: formalin test, intrathecal administration, comparison with morphine (Example 12); format: in vivo; conditions: 30 minutes before formalin, bLF 0.1 to 100 μg/rat, rhLF 100 μg/rat, morphine 10 μg/rat, FIGS. 15
Procedure: Groups consisting of male Wistar rats 6 weeks of age (n=6 to 8) were intrathecally administered 0.1 to 100 μg/rat of bovine lactoferrin (bLF), 100 μg/rat of recombinant human lactoferrin (rhLF) or 10 μg/rat of morphine (Mor) 30 minutes before formalin was injected into their foot pads. The results are shown in FIGS. 15: the number of the foot-lifting times in the phase 1 pain (left graph) and the number of the foot-lifting times in the phase 2 pain (right graph).

[13] = system: adjuvant arthritis models; assay: adjuvant arthritis, Flexion test after a single oral dose (Example 7); format: in vivo, rat
Procedure: On day 25 after the adjuvant treatment, the rats were divided into 6 groups and administered once BSA (bovine serum albumin) or LF (lactoferrin), and after 3 hours, the pain index was measured for each group by Flexion test in the manner as in Example 5. Thirty minutes before Flexion test, saline solution, morphine or naloxone was administered subcutaneously.

male Wistar rats [14] = assay: formalin test, comparison with diclofenac (Example 3); format: in vivo, rat; conditions: i.p. 30 minutes before formalin
Procedure: Male Wistar rats 6 weeks of age were used. The rats in one group were given bovine lactoferrin and those in another group were given a control drug, diclofenac, by intraperitoneal administration 30 minutes before injecting formalin into their foot pads. Their responses to pain are shown in FIG. 5: the phase 1 pain (left) and the phase 2 pain (right).
Lactoferrin and diclofenac were administered intraperitoneally 30 minutes before formalin injection both in the control group (n=4) and the diclofenac group (n=5). The pain inhibiting effect of diclofenac disappeared about 50 minutes after formalin injection, whereas the pain inhibiting effect of lactoferrin lasted long and even 60 minutes after formalin injection.

male Wistar rats [15] = assay: formalin test, intraperitoneal administration (Example 1); format: in vivo, rat
Procedure: as §6
Ten male Wistar rats (6 weeks of age) were randomly divided into two groups, and one hour before injecting formalin, the rats in the control group were given saline solution (1 ml/kg) and those in the lactoferrin group were given bovine lactoferrin dissolved in saline solution (100 ml/kg, Tatua Milk Industry Co., Ltd., purity: 87%) by intraperitoneal injection. After one hour, formalin solution was injected into the foot pad of each rat, and the foot-lifting and foot-licking behavior of each rat due to the stimulation of the pain sensation was measured for one hour (FIGS. 1 and 2).

protease = assay: resistance of lactoferrin to protease; format: in vitro ADME
Text: as §5

[16] = lactoferrin orally for 19 consecutive days
[17] = single oral dose of lactoferrin

B1: lactoferrin (protein, UniProt P24627 20-708, looked up)
Lactotransferrin: APRKNVRWCTISQPEWFKCRRWQWRMKKLGAPSITCVRRAFALECIRAIAEKKADAVTLDGGMVFEAGRDPYKLRPVAAEIYGTKESPQTHYYAVAVVKKGSNFQLDQLQGRKSCHTGLGRSAGWIIPMGILRPYLSWTESLEPLQGAVAKFFSASCVPCIDRQAYPNLCQLCKGEGENQCACSSREPYFGYSGAFKCLQDGAGDVAFVKETTVFENLPEKADRDQYELLCLNNSRAPVDAFKECHLAQVPSHAVVARSVDGKEDLIWKLLSKAQEKFGKNKSRSFQLFGSPPGQRDLLFKDSALGFLRIPSKVDSALYLGSRYLTTLKNLRETAEEVKARYTRVVWCAVGPEEQKKCQQWSQQSGQNVTCATASTTDDCIVLVLKGEADALNLDGGYIYTAGKCGLVPVLAENRKSSKHSSLDCVLRPTEGYLAVAVVKKANEGLTWNSLKDKKSCHTAVDRTAGWNIPMGLIVNQTGSCAFDEFFSQSCAPGADPKSRLCALCAGDDQGLDKCVPNSKEKYYGYTGAFRCLAEDVGDVAFVKNDTVWENTNGESTADWAKNLNREDFRLLCLDGTRKPVTEAQSCHLAVAPNHAVVSRSDRAAHVKQVLLHQQALFGKNGKNCPDKFCLFKSETKNLLFNDNTECLAKLGGRPTYEEYLGTEYVTAIANLKKCSTSPLLEACAFLTR
notes: bovine lactoferrin extracted from milk (Tatua Milk Industry Co., Ltd., purity 87%)
TNF-α production (TNF-α production; [16]): significant inhibition | TNF-α production (TNF-α production; [17]): significant inhibition | IL-10 production (IL-10 production; [16]): increase | IL-10 production (IL-10 production; [17]): increase | abnormal findings, subacute toxicity (rats [1]): no abnormal findings were observed | abnormal findings, subacute toxicity (beagles [2]): no abnormal findings were observed | enhancement of the analgesic effect of morphine, phase 1 pain (male Wistar rats [3]): 10- to 100 fold | enhancement of the analgesic effect of morphine, phase 2 pain (male Wistar rats [3]): 10- to 100 fold | abnormal findings, single dose acute toxicity (rats [4]): no abnormal findings were observed | abnormal findings, single dose acute toxicity (beagles [5]): no abnormal findings were observed | sensation of pain against the stimulation (rodent animals [6]): weakened sensation of pain | sensitivity to pepsin (pepsin): highly sensitive | area of the hemorrhage per rat, decreased to (male Wistar rats [7]): 79% | area of the ulcers, decreased to (male Wistar rats [7]): about 30% | number of the large ulcers, decreased to (male Wistar rats [7]): 50% | number of the ulcers, decreased to (male Wistar rats [7]): 50% | number, per rat, of hemorrhagic spots on the gastric mucosa, decreased to (male Wistar rats [7]): 87% | foot-licking behavior (male Wistar rats [8]): significantly decreased | phase 2 pain sensation stimulation induced by formalin (male Wistar rats [8]; FIG. 4): significantly inhibiting | stimulation of the pain sensation (foot-lifting) (male Wistar rats [8]; vs control P<0.0001, FIG. 3): weakened the sensitivity to pain | sensation of pain against the stimulation (rodent animals [9]): weakened sensation of pain | swelling rate of the feet ([10]; 18 consecutive days from day 0, FIG. 10): significantly lower | Flexion test (screams, pain index) ([10]; days 4 and 10 after adjuvant, FIG. 11): neither screamed nor showed pain sensation reaction | pain index in Flexion test ([11]; 7 consecutive days from day 19, LF vs control from day 1, Dex vs lactoferrin groups, FIG. 12C): significantly lower | swelling of feet ([11]; 7 consecutive days from day 19 after adjuvant, LF 100 mg/kg oral (day 7 vs control), Dex 1 mg/kg (from day 1)): significantly lower | phase 1 pain (number of foot-lifting times) (male Wistar rats [12]): inhibits | phase 2 pain (number of foot-lifting times) (male Wistar rats [12]): inhibits | analgesic effect of lactoferrin with naloxone ([13]; LF 100 mg/kg oral plus naloxone 3 mg/kg s.c. 30 mins before Flexion test): completely inhibited by naloxone | sensitivity to pain in the joints (Flexion test) ([13]; single oral dose 10 to 100 mg/kg, 3 hrs before test, day 25 after adjuvant, FIG. 13): inhibited the sensitivity to pain in the joints dose-dependently | inhibition of phase 1 pain (male Wistar rats [14]; FIG. 5): inhibited dose-dependently | inhibition of phase 2 pain (male Wistar rats [14]; FIG. 5): inhibited dose-dependently | duration of pain inhibiting effect after formalin injection (male Wistar rats [14]; FIGS. 7 and 8): ≥ 60 min | foot-lifting behavior (male Wistar rats [15]; i.p. 100 ml/kg one hour before formalin, measured for one hour, vs control P<0.0001, FIG. 1): significantly decreased | number of times rats lifted their feet within 50 minutes after formalin injection (phase 2 pain) (male Wistar rats [15]; i.p. one hour before formalin, vs control, FIG. 2): more significantly decreased | foot-licking behavior (male Wistar rats [15]; i.p., higher doses, data not shown): significantly decreased | resistance to protease (protease): significantly resistive
